Source: article doi:10.1101/2023.02.02.526371

Molecular target: T1, PIF3-GST (Arabidopsis thaliana, UniProt O80536 1-524)
T1 sequence: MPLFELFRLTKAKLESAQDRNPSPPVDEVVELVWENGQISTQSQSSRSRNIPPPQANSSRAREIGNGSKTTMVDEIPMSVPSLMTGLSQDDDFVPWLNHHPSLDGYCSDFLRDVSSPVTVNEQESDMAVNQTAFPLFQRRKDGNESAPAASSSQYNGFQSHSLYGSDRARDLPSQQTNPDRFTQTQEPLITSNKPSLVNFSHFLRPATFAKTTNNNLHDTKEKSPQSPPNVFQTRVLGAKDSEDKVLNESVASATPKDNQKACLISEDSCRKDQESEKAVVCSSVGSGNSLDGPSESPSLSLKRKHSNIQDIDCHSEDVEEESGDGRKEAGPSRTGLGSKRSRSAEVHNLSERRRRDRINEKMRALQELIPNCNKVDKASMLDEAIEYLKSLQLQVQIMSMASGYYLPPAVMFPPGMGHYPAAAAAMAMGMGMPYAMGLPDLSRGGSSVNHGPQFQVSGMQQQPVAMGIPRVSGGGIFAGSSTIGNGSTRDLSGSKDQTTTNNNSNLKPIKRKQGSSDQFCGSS
Assay: EMSA

B1: PIEZO promoter probe 2 (dsDNA)
DNA 1: ATCCAAATGGACCACATGCCCATCAACCTCCAT
DNA 2: ATGGAGGTTGATGGGCATGTGGTCCATTTGGAT
binding result: binds

B2: PIEZO promoter probe 1 (dsDNA)
DNA 1: CCTAGAACTAAACACATGAGCCTCCTTCTT
DNA 2: AAGAAGGAGGCTCATGTGTTTAGTTCTAGG
binding result: binds
